Test results published in patent EP4647081A1.

Biological target: cell surface IgG (sIgG) of the sIgG+ B cell line SU-DHL-4
Test: cell-based or functional assay

Substance	lowest concentration with significant toxicity on SU-DHL-4 (cell viability)	percent of SU-DHL-4 cells killed above 0.001 µg/ml	concentration showing weak cytotoxicity on SU-DHL-4 (cell viability)
SpA toxin	0.0001 µg/mL	99%	–
SpG toxin (from UniProt P00587 26-411)	–	–	1 µg/mL
